Results from patent US20140371148A1.
No end group written: not given here.

B1: N-(γ-L-Glu-(2-(S)-cyano pyrrolidyl)-Ado-Ado) GIP(1-30)-exendin-4(31-39) (peptide)
peptide: YAEGTFISDYSIAMDKIHQQDFVNWLLAQKPSSGAPPPS
modifications: not checked
B2: [D-Ala^2] GIP(1-30)-exendin-4(31-39)-Ado-Lys-N-ε-(2-(S)-cyano pyrrolidyl) (peptide)
peptide: YAEGTFISDYSIAMDKIHQQDFVNWLLAQKPSSGAPPPS
modifications: not checked
B3: [Leu^14] GIP(1-30)-exendin-4(31-39)-Ado-Lys-N-ε-(2-(S)-cyano pyrrolidyl) (peptide)
peptide: YAEGTFISDYSIALDKIHQQDFVNWLLAQKPSSGAPPPS-{Ado-Lys(N-ε-(2-(S)-cyano pyrrolidyl))}

biological target: Recombinant DPP-IV; experiment: cell-based or functional assay

In order of falling DPP-IV IC50:
1. B1  110 nM
2. B2  85 nM
3. B3  82 nM
